Assay results taken from publication PMC4977486, “A/T Run Geometry of B-form DNA Is Independent of Bound Methyl-CpG Binding Domain, Cytosine Methylation and Flanking Sequence”.

How the values were obtained:
[1] = biological target: MeCP2 MBD wild type (UniProt P51608 78-163); test: EMSA; 2, 4, 8 uM protein; 1.8 uM DNA; 1.8 uM poly(dG-dC) competitor; reference; EMSA: 100 mM Tris-HCl pH 7.5, 500 mM KCl, 10 mM DTT, 1.8 uM poly(dG-dC), room temperature 30 min; 8% native PAGE in Tris-glycine pH 8.3 at 277 K; settings: protein: recombinant; 5' overhang 1 nt on each strand (T and A), 19 bp
[2] = biological target: MeCP2 MBD-TRD wild type (UniProt P51608 78-310); test: as above; settings: protein: recombinant; 5' overhang 1 nt on each strand (T and A), 19 bp

B1: methylated BDNFProIII 20-mer (dsDNA)
DNA 1: TCTGGAACGGAATTCTTCTA
DNA 2: ATAGAAGAATTCCGTTCCAG
modifications: 5-methylcytosine at position 8 of strand 1 and position 13 of strand 2 (C33 in duplex numbering)
For B1, the binding signal [1] was 100 % of wild-type MBD complex and the binding signal [2] was 100 % of wild-type MBD-TRD complex.
